Biological target: the molecule itself
Assay: fluorescence microscopy of assemblies of purified protein; purified fluorescent protein (100 nM where stated) in 50 mM Tris pH 7.5, 150 mM NaCl, 1.5% glycerol with PEG8000 (up to 6%) or BSA 300 mg/ml as crowding agent, RT 10 min, confocal imaging

Row | Protein | binding result
1 | mScarlet I-Deup1 (deuterosome protein 1, mouse, longer isoform) (natural protein, UniProt Q7M6Y5-1 1-601, looked up, Deuterosome protein 1 (Deup1), mouse, longer isoform NP_001360846, cloned from a mouse lung cDNA library with primers from the start to the stop codon; 601 residues by the fragment limits; Expressed from pGEX 6p-1 modified with a C-terminal 6xHis tag and a TEV site; also called mS-Deup1; full-length Deup1; source: E. coli BL21 gold (DE3), purified (Ni-NTA, glutathione sepharose, eluted with …)) MENQAHTTAGASPCEAELQELMEQIDIMVSNKKLDWERKMRALETRLDLRDQELANAQTCLDQKGQEVGLLRQKLDSLEKCNLVMTQNYEGQLQTLKAQFSKLTSNFEKLRLHQMKQNQIHRKESSSKEELPFELSSLNQKLEEFRAKSREWDKQEVLYQTHLVSLDAQQKLLSEKCSQFQKQAQNYQTQLNGKKQCAEDSSSEIPRLVCESDPGCEATQRDEFIIEKLKSAVSEIALSRNKLQDENQKLLQELKMYQRQCQAMEAGLSEVKSELQSRDDLLRIIEMERLHLHRELLRMGEVQTAQDNRKRVESSYSPSPKEAERKRKELFPMVSDQPNHEKELSKMRSQLYQEEGLCSEQERLRSEISELTQELHQKEVTIATVMKKAALLERQLKIELEIKERMLAKQQVSDRRYKAVRTENTHLKGMMGDLDPARYLAVDLSNKKHSQCTSINKLEYENERLRSDLAKLHGNGKAAWPNQSSYGEAGAYVFQSQLKTETSGDRISQDCELNRSPTPLSPLPFQTKEMASPLVGDNEVLALSPPDISFRASLAAQHFLMEEERRAKELEKLLNTHIDELQRHTEFTLNKYTKLKQSRHI | binds
2 | mScarlet I-Deup1 N-terminus fragment (1-466 a.a.) (domain or fragment, mouse, UniProt Q7M6Y5-1 1-466, looked up, Deuterosome protein 1 (Deup1), mouse, longer isoform NP_001360846, residues 1-466, with multiple coiled coil domains; source: E. coli BL21 gold (DE3), purified (Ni-NTA, glutathione sepharose, eluted with PreScission and TEV protease); not shown: GST, N-terminal, cleaved; mScarlet I, N-terminal, kept; His6, C-terminal, cleaved) MENQAHTTAGASPCEAELQELMEQIDIMVSNKKLDWERKMRALETRLDLRDQELANAQTCLDQKGQEVGLLRQKLDSLEKCNLVMTQNYEGQLQTLKAQFSKLTSNFEKLRLHQMKQNQIHRKESSSKEELPFELSSLNQKLEEFRAKSREWDKQEVLYQTHLVSLDAQQKLLSEKCSQFQKQAQNYQTQLNGKKQCAEDSSSEIPRLVCESDPGCEATQRDEFIIEKLKSAVSEIALSRNKLQDENQKLLQELKMYQRQCQAMEAGLSEVKSELQSRDDLLRIIEMERLHLHRELLRMGEVQTAQDNRKRVESSYSPSPKEAERKRKELFPMVSDQPNHEKELSKMRSQLYQEEGLCSEQERLRSEISELTQELHQKEVTIATVMKKAALLERQLKIELEIKERMLAKQQVSDRRYKAVRTENTHLKGMMGDLDPARYLAVDLSNKKHSQCTSINKLEYENERLR | binds

— PMC7938805, “Biophysical and biochemical properties of Deup1 self-assemblies: a potential driver for deuterosome formation during multiciliogenesis” (Biology Open, 2021)
